From patent publication US8598081B2, “Specific delivery of agrochemicals” (priority 2010, dated 2013)

What was measured:
[1] = system: surface of black nightshade leaves; test: VHH binding to non-fixed leaf discs, black nightshade; conditions: 5 μg/ml, detection with anti-histidine Alexa-488
Protocol: (§1) VHH binding to non-fixed leaf discs of potato (variety Desiree), black nightshade, grass, wheat or azalea was investigated. For comparison, binding of CBM3a to non-fixed leaf discs of potato (variety Desiree) was analyzed in parallel. Leaf discs were prepared by punching a fresh potato leaf with a 5 mm belt hole puncher tool. Leaf discs were put immediately in wells of a 96-well plate containing 200 μl per well 5% MPBS or PBS, and incubated for 30 minutes. Leaf discs were transferred to solutions containing 5 μg/ml VHH antibody fragment, respectively, 5 μg/ml CBM3a in 2% MPBS or PBS and incubated for 60-90 minutes. Unbound VHH or CBM3a proteins were removed by washing three times with 2% MPBS or PBS. Bound VHH or CBM3a proteins were detected with incubation with monoclonal mouse anti-histidine antibodies directly conjugated with Alexa-488 fluorescent dye (Abd Serotec) in 1% MPBS for 1 hour. Unbound antibodies were removed by washing three times with PBS. Leaf discs were put on glass slides, covered with cover slips, and analyzed by microscopy or on a macrozoom microscope system (Nikon) or a SP5 confocal microscope system (Leica).

[2] = system: leaf surface of potato leaves; test: VHH binding to non-fixed leaf discs, potato; parameters: species or system potato (variety Desiree); conditions: 5 μg/ml, detection with anti-histidine Alexa-488
Protocol: as §1

potato leaf discs = test: VHH binding at different temperatures, leaf dip experiment; parameters: species or system potato (variety Desiree); conditions: temperature range from 4° C. to 55° C.; 5 μg/ml in PBS; 1 hour
Protocol: In order to test applicability of VHH as binders for greenhouse or field applications where binding supposedly may occur at different and sometimes even extreme temperatures, a leaf dip VHH binding experiment at different temperatures was used. Temperatures used were 4° C., room temperature, 37° C., 55° C., or 70° C. ø 8 mm potato leaf discs (variety Desiree) were cut using a puncher tool. The leaf discs were equilibrated to different temperatures by washing three times with PBS at different temperatures. Hexahistidine-tagged VHH were diluted to 5 μg/ml in PBS at different temperatures, added to the corresponding equilibrated leaf discs, and binding of VHH was allowed for 1 hour at different temperatures. After incubation with VHH, leaf discs were washed five times with PBS at room temperature. Bound VHH were detected by incubation with monoclonal mouse anti-histidine antibodies directly conjugated with Alexa-488 fluorescent dye (Abd Serotec) in PBS for 1 hour at room temperature. Unbound anti-histidine antibodies were removed by washing five times with PBS at room temperature. Leaf discs were analyzed for bound VHH with microscopy. […] Please note that leaf discs severely suffer when submerged in PBS at 70° C. for 1 hour but that binding of VHH was still detected.

[3] = system: gum arabic or potato lectin; test: Lambda cyhalothrin amount in wells with bound microcapsules, GC/MS-MS; type: binding; conditions: VHH coupled to lambda cyhalothrin microcapsules
Protocol: An ELISA-like assay setup was used to evaluate the interaction of VHH-coupled microcapsules to antigen-containing surfaces. ELISA plates (Maxisorp (Thermo Scientific Nunc) or high bind half area microplates (Greiner Bio-One)) were coated with gum arabic or potato lectin. Coatings were performed overnight with 100 μg/ml gum arabic or potato lectin in PBS. Control wells included blank wells or wells coated with unrelated antigens. Plates were washed three times with PBS with 0.05%-TWEEN®-20 and blocked with 5% skimmed milk in PBS for 1 to 2 hours. VHH-coupled lambda cyhalothrin-containing or Uvitex-containing microcapsules were diluted to appropriate densities in 1% skimmed milk in PBS with 0.05%-TWEEN®-20. Microcapsules were added to the antigen-coated or control wells and allowed to bind for 1 hour. Unbound microcapsules were removed by washing five times with PBS with 0.05%-TWEEN®-20. The bottoms of ELISA plate wells were analyzed for bound microcapsules on a macrozoom microscope system (Nikon). Microcapsules were counted using Volocity image analysis software (Perkin Elmer). A DAPI filter was used to visualize Uvitex microcapsules. […]
In another experiment, lambda cyhalothrin amounts were also determined analytically. […] The amount of lambda cyhalothrin was determined by GC/MS-MS analysis in comparison with calibration solutions. […]

B1: VHH 3E6: VHH binding gum arabic, potato lectin and leaf surface; SEQ ID NO:7 by order of the list (protein, listed as Lama glama)
VHH: QVQLQESGGGLVQPGGTLSLSCAASGFNVRWYGMGWFRQAPGKEREGVACISALQETTAYADSVKGRFTLSRDNPKNTLSLQMNNLQPEDTGVYYCATTDCDDSSRMTYTSYLGQGTQVTVSS
modifications: 3E6
binding to native black nightshade leaf surface (fluorescence microscopy) [1]: binding leaf surface, glandular trichomes, and leaf hairs | binding to native black nightshade leaf surface (fluorescence microscopy) ([1]; listed as 3E6): bind specifically | binding to native potato leaf surface (fluorescence microscopy) [2]: binding leaf surface, stomata, glandular trichomes, and leaf hairs | binding to native potato leaf surface (fluorescence microscopy) ([2]; listed as 3E6): clearly binding to trichomes, stomata and cuticle | binding to leaf discs at different temperatures (potato leaf discs): detectable binding | increase of amounts of lambda cyhalothrin in wells coated with antigen compared to blank microcapsules [3]: 23 fold | increase of amounts of lambda cyhalothrin over blank wells not coated with antigen [3]: 27 fold
